Experimental data reported in publication PMC11089504 (Journal of medicinal chemistry, 2024).

Key:
[1] = system: C=C(CC[C@@H](C)[C@H]1CC[C@@]2(C)C3=C(CC[C@]12C)[C@@]1(C)CC[C@H](O)[C@@H](C)[C@@H]1CC3)C(C)C; experiment: purified protein, by the assay type; conditions: other: 37 °C, 1 min reactions obtusifoliol, 20 min lanosterol
[2] = system: CC(C)=CCC[C@@H](C)[C@H]1CC[C@@]2(C)C3=C(CC[C@]12C)[C@@]1(C)CC[C@H](O)C(C)(C)[C@@H]1CC3; experiment: purified protein, by the assay type; conditions: other: 37 °C, 1 min reactions obtusifoliol, 20 min lanosterol
[3] = biological target: T1, A. castellanii CYP51 (Acanthamoeba castellanii, UniProt L8GJB3, V2A); experiment: A. castellanii CYP51 inhibition assay, reconstituted 1 h enzyme reaction; format: biochemical; conditions: 1 h IC50, 1 h reaction, 0.5 μM P450, 50 μM obtusifoliol
T1 sequence (L8GJB3 1-486 V2A): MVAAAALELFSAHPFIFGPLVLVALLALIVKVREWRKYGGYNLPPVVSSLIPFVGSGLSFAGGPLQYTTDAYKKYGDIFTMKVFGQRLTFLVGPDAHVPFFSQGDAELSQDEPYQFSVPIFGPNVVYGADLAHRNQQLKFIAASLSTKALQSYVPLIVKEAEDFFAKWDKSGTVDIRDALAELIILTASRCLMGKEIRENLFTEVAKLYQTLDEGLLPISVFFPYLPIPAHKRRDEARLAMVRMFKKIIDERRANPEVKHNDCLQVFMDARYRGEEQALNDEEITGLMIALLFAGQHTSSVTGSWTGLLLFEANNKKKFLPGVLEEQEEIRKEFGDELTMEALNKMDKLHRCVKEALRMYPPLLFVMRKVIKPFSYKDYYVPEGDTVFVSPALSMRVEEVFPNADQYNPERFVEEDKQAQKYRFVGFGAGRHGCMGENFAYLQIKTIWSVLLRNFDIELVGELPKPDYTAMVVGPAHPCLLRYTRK
T1 sequence (P00388 2-678 partner): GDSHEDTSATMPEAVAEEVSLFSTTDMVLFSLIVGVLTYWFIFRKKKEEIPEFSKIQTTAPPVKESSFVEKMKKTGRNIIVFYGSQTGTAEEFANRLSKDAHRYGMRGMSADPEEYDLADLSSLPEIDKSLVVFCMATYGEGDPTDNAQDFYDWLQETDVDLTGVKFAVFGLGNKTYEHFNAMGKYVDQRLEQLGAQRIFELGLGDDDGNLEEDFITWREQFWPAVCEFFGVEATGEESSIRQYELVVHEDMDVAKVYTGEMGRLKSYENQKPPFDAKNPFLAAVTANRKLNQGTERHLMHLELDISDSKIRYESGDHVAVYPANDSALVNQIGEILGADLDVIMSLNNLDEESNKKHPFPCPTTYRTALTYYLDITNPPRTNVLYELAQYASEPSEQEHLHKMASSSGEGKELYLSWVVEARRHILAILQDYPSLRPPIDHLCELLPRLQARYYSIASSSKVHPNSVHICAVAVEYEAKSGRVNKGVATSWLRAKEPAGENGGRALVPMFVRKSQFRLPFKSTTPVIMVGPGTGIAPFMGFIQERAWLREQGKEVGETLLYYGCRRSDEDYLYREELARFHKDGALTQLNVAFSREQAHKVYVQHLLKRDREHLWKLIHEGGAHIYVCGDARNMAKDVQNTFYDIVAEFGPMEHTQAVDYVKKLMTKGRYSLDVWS

Row | Compound | Km [1] [µM] | kcat [1] [s⁻¹] | kcat/Km [1] [M⁻¹ s⁻¹] | Km [2] [µM] | kcat [2] [s⁻¹] | kcat/Km [2] [M⁻¹ s⁻¹] | IC50 [3] [µM]
1 | A. castellanii CYP51 (Acanthamoeba castellanii str. Neff; V2A) | 2.7 ± 0.3 | 0.513 | 190000 | 52 ± 15 | 0.102 | 2000 | 
2 | OC(Cn1cncn1)(Cn1cncn1)c1ccc(F)cc1F [fluconazole] |  |  |  |  |  |  | 71
